Source: PMC11162792 (Nucleic Acids Research, 2023)

What was measured:
[1] = target: PEDV nsp12-A382R (porcine epidemic diarrhea virus (PEDV)); assay: native MS
[2] = target: T1, PEDV nsp12 (porcine epidemic diarrhea virus (PEDV), UniProt P0C6Y4); assay: native MS
T1 sequence: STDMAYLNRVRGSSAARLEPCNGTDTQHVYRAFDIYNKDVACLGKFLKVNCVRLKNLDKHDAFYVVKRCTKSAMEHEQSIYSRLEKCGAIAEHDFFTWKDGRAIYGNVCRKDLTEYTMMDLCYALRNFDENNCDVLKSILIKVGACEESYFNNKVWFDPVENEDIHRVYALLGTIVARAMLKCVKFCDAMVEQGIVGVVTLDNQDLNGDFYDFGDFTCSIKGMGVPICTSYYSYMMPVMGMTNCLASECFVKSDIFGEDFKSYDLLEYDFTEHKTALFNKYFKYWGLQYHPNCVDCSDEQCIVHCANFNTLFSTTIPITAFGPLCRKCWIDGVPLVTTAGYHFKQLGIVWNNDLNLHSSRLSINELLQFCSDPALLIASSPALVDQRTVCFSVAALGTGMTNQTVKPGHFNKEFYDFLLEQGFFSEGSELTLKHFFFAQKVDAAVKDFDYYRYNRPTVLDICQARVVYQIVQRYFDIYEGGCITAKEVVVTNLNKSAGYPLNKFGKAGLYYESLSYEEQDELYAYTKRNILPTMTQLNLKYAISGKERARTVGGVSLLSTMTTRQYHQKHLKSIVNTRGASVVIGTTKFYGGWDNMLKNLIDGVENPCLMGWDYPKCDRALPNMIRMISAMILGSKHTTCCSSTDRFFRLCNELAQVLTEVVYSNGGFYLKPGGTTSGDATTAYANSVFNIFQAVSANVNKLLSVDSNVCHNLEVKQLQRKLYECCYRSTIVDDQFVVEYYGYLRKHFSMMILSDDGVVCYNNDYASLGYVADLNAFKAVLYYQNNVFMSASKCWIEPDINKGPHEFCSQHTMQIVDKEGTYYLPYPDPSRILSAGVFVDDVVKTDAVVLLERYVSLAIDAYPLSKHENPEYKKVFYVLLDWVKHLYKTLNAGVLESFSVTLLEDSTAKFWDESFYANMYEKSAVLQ

[3] = target: PEDV nsp12 (RdRp);PEDV nsp7;PEDV nsp8 (Porcine epidemic diarrhea virus …, UniProt P0C6Y4;P0C6Y4;P0C6Y4 4101-5027;3580-3662;3663-3857, ||); assay: native mass spectrometry

**Q.** For PEDV nsp12-A382R (enzyme), which stoichiometry N [1] is on record?
**A.** 2

B1: PEDV nsp8 (natural protein)
chain: SVASTYVGLPSYVIYENARQQYEDAVNNGSPPQLVKQLRHAMNVAKSEFDREASTQRKLDRMAEQAAAQMYKEARAVNRKSKVVSAMHSLLFGMLRRLDMSSVDTILNLAKDGVVPLSVIPAVSATKLNIVTSDIDSYNRIQREGCVHYAGTIWNIIDIKDNDGKVVHVKEVTAQNAESLSWPLVLGCERIVKLQ
**Q.** Which “stoichiometry N” value [2] does the source give for B1 here?
**A.** 2

B2: Pair 1 primer/template RNA (short) (dsRNA)
RNA 1: CAUUCUCCUAAGAAGCUAUUAAAAUCACA
RNA 2: AAAAAGGGUUGUGAUUUUAAUAGCUUCUUAGGAGAAUG
**Q.** Does B2 bind [3]?
**A.** binds

B3: PEDV nsp7 (natural protein)
chain: SKLTDIKCSNVVLLGCLSSMNVSANSTEWAYCVDLHNKINLCNDPEKAQEMLLALLAFFLSKNSAFGLDDLLESYFNDNSMLQ
**Q.** For B3, which “stoichiometry N” value [2] is on record?
**A.** 1
